According to patent US20210122810A1 (Janssen / Centocor, published 2021):

How the values were obtained:
[1] = target: T1, Tau peptide encompassing residues 299-318 (human); assay: isothermal titration calorimetry, peptide in cell titrated with IgG, PBS pH 7.4, one set of sites model
T1 construct: also called Tau protein (peptide)
T1 peptide: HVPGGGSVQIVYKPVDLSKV
Procedure: Affinities of the binding molecules of the present invention were determined using a Microcal Auto-iTC200 isothermal titration calorimeter (Malvern). Tau and tau antibodies were dialysed to PBS, pH 7.4 to ensure perfect buffer matching conditions. […] Data was fitted according to a one set of sites model using Microcal PEAQ-ITC Analysis Software (Malvern).

[2] = target: T1, Tau peptide encompassing residues …; assay: isothermal titration calorimetry (ratio of the KD values against CBTAU-27.1)

B1: antibody of the present invention (antibody, V domains shown)
VH: QVQLVESGPEMRKPGESLKISCKTSGYIFSDYWTAWVRQLPGKGLQWMGIIYSGDSDTRYHPSVQGHVTMSTDSSLTTAYLQWSSLKASDTGIYYCARLDARVDAGWQLDSWGQGTLVTVSS
VL: DIQLTQSPDSLAVSLGERATINCKSSQSVFYRDNNKNYLAWYQHKSGQPPKLLFFWASSRESGVSDRFSGSGSGTDFTLTIDNLQAEDVALYYCQHYFNIPHNFGQGTKLEIK
notes: also called antibody according to the present invention
- Kd [1]: 12.8 nM
- fold improvement in affinity relative to CBTAU-27.1 [2]: 50 fold
